Measurements taken from PMC11088704, “Structural basis for the regulation of plant transcription factor WRKY33 by the VQ protein SIB1” (Communications Biology, 2024).

Tests used:
[1] = target: WRKY33_C;SIB1 (SIB1 11-100) (Arabidopsis thaliana;Arabidopsis …, UniProt Q8S8P5;Q9LDH1 345-422;11-100, |); experiment: EMSA; SIB1:WRKY33_C 2:1; ternary complex; Kd not fittable; EMSA: NMR buffer (composition not given in material) with 100 mM NaCl, 1.0 ng dsDNA in 20 ul, room temperature 20 min, SIB1:WRKY33_C 2:1; gel in 0.5x TBE, GelRed stain; conditions: protein: recombinant;recombinant; tags: C-terminal 6xHis;C-terminal 6xHis; copies: 1;1; blunt
Sequence of WRKY33_C;SIB1 (SIB1 11-100) (Q8S8P5 345-422, chain 1 of 2): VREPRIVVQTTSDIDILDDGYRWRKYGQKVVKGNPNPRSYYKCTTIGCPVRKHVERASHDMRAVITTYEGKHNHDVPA
Sequence of WRKY33_C;SIB1 (SIB1 11-100) (Q9LDH1 11-100, chain 2 of 2): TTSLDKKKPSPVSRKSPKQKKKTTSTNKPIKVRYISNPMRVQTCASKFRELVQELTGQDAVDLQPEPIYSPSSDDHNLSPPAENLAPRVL

WRKY33_C;SIB1mini = WRKY33_C;SIB1mini (Arabidopsis thaliana;Arabidopsis …, UniProt Q8S8P5;Q9LDH1 345-422;46-69, |); experiment: EMSA; SIB1mini present; Kd not fittable; EMSA: NMR buffer (composition not given in material) with 100 mM NaCl, 1.0 ng dsDNA in 20 ul, room temperature 20 min, SIB1:WRKY33_C 2:1; gel in 0.5x TBE, GelRed stain; conditions: tags: C-terminal 6xHis;; copies: 1;1; blunt
Sequence of WRKY33_C;SIB1mini (Q8S8P5 345-422, chain 1 of 2): as the sequence (Q8S8P5 345-422, chain 1 of 2) above
Sequence of WRKY33_C;SIB1mini (Q9LDH1 46-69, chain 2 of 2): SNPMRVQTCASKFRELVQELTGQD

B1: W-box DNA (dsDNA)
DNA 1: AAAGTTGACCAA
DNA 2: TTGGTCAACTTT
For B1, the binding signal [1] was ~95 % DNA bound at 1:1 molar ratio (WRKY33_C alone ~80%) and the binding signal (WRKY33_C;SIB1mini) was ~95 % DNA bound at 1:1 molar ratio (WRKY33 alone ~80%).
